The Km is the substrate concentration at which the rate is half of its maximum. For orientation: kcat means the number of substrate molecules converted per active site and unit of time at saturation. As usually defined, the kcat/Km is the second-order rate constant that governs catalysis at low substrate concentration.

Drawing on article PMC2845155, this text covers Km, kcat and kcat/Km for one substance.

In this data set the test system is CC(=O)N[C@H]1[C@@H]2OC[C@@H](O2)[C@@H](O)[C@@H]1O[C@H](C)C(=O)N[C@@H](C)C(=O)N[C@H](CCC(=O)N[C@@H](CCC[C@@H](N)C(=O)O)C(=O)O)C(=O)O. The experiment in a line: LC/MS of substrate consumption or product formation, nonlinear regression. The class given is biochemical, Citrobacter freundii. As to conditions: pH 7.0, hydrolysis at lactyl amide bond.

AmpD (Citrobacter freundii): the Km worked out at 360 ± 10 µM, the kcat came out at 25 ± 2 s⁻¹ and the kcat/Km came to 69000 ± 4000 M⁻¹ s⁻¹.
